According to PMC13379236 (2026):

B1: C-terminal FLAG-tagged WT ZYG11B [human] / Strep-tagged NLRP1, C-terminal fragment generated by 3C cleavage (begins at G131) [human] (parent complex)
chain 1: PEDQAGAAMEEASPYSLLDICLNFLTTHLEKFCSARQDGTLCLQEPGVFPQEVADRLLRTMAFHGLLNDGTVGIFRGNQMRLKRACIRKAKISAVAFRKAFCHHKLVELDATGVNADITITDIISGLGSNKWIQQNLQCLVLNSLTLSLEDPYERCFSRLSGLRALSITNVLFYNEDLAEVASLPRLESLDISNTSITDITALLACKDRLKSLTMHHLKCLKMTTTQILDVVRELKHLNHLDISDDKQFTSDIALRLLEQKDILPNLVSLDVSGRKHVTDKAVEAFIQQRPSMQFVGLLATDAGYSEFLTGEGHLKVSGEANETQIAEALKRYSERAFFVREALFHLFSLTHVMEKTKPEILKLVVTGMRNHPMNLPVQLAASACVFNLTKQDLAAGMPVRLLADVTHLLLKAMEHFPNHQQLQKNCLLSLCSDRILQDVPFNRFEAAKLVMQWLCNHEDQNMQRMAVAIISILAAKLSTEQTAQLGTELFIVRQLLQIVKQKTNQNSVDTTLKFTLSALWNLTDESPTTCRHFIENQGLELFMRVLESFPTESSIQQKVLGLLNNIAEVQELHSELMWKDFIDHISSLLHSVEVEVSYFAAGIIAHLISRGEQAWTLSRSQRNSLLDDLHSAILKWPTPECEMVAYRSFNPFFPLLGCFTTPGVQLWAVWAMQHVCSKNPSRYCSMLIEEGGLQHLYNIKDHEHTDPHVQQIAVAILDSLEKHIVRHGRPPPCKKQPQARLN
chain 2: GSERRVLRQLPDTSGRRWREISASLLYQALPSSPDHESPSQESPNAPTSTAVLGSWGSPPQPSLAPREQEAPGTQWPLDETSGIYYTEIREREREKSEKGRPPWAAVVGTPPQAHTSLQPHHHPWEPSVRESLCSTWPWKNEDFNQKFTQLLLLQRPHPRSQDPLVKRSWPDYVEENRGHLIEIRDLFGPGLDTQEPRIVILQGAAGIGKSTLARQVKEAWGRGQLYGDRFQHVFYFSCRELAQSKVVSLAELIGKDGTATPAPIRQILSRPERLLFILDGVDEPGWVLQEPSSELCLHWSQPQPADALLGSLLGKTILPEASFLITARTTALQNLIPSLEQARWVEVLGFSESSRKEYFYRYFTDERQAIRAFRLVKSNKELWALCLVPWVSWLACTCLMQQMKRKEKLTLTSKTTTTLCLHYLAQALQAQPLGPQLRDLCSLAAEGIWQKKTLFSPDDLRKHGLDGAIISTFLKMGILQEHPIPLSYSFIHLCFQEFFAAMSYVLEDEKGRGKHSNCIIDLEKTLEAYGIHGLFGASTTRFLLGLLSDEGEREMENIFHCRLSQGRNLMQWVPSLQLLLQPHSLESLHCLYETRNKTFLTQVMAHFEEMGMCVETDMELLVCTFCIKFSRHVKKLQLIEGRQHRSTWSPTMVVLFRWVPVTDAYWQILFSVLKVTRNLKELDLSGNSLSHSAVKSLCKTLRRPRCLLETLRLAGCGLTAEDCKDLAFGLRANQTLTELDLSFNVLTDAGAKHLCQRLRQPSCKLQRLQLVSCGLTSDCCQDLASVLSASPSLKELDLQQNNLDDVGVRLLCEGLRHPACKLIRLGLDQTTLSDEMRQELRALEQEKPQLLIFSRRKPSVMTPTEGLDTGEMSNSTSSLKRQRLGSERAASHVAQANLKLLDVSKIFPIAEIAEESSPEVVPVELLCVPSPASQGDLHTKPLGTDDDFWGPTGPVATEVVDKEKNLYRVHFPVAGSYRWPNTGLCFVMREAVTVEIEFCVWDQFLGEINPQHSWMVAGPLLDIKAEPGAVEAVHLPHFVALQGGHVDTSLFQMAHFKEEGMLLEKPARVELHHIVLENPSFSPLGVLLKMIHNALRFIPVTSVVLLYHRVHPEEVTFHLYLIPSDCSIRKAIDDLEMKFQFVRIHKPPPLTPLYMGCRYTVSGSGSGMLEILPKELELCYRSPGEDQLFSEFYVGHLGSGIRLQVKDKKDETLVWEALVKPGDLMPATTLIPPARIAVPSPLDAPQLLHFVDQYREQLIARVTSVEVVLDKLHGQVLSQEQYERVLAENTRPSQMRKLFSLSQSWDRKCKDGLYQALKETHPHLIMELWEKGSKKGLLPLSS

Variants of: B1
Assay: coIP with western blot quantification; HEK293T cells, transfected for 48 h, with 3C protease; read off a plot

| Variant | ratio to parent |
| --- | --- |
| chain 1 D525A | ~0.05 |
| chain 1 D434K | ~0.94 |
| chain 1 E643K | ~0.5 |
| chain 1 F515A | ~0.85 |
| chain 1 E569A | ~0.05 |

Second part, the variant after the results:

| ratio to parent | Variant |
| --- | --- |
| ~0.05 | chain 1 W521A |
| ~1.1 | chain 1 K514E |
| ~0.08 | chain 1 N566A |
| ~0.27 | chain 1 R465A |
| ~0.51 | chain 1 Y684A |
